Measurements: patent US20210163601A1 (Amgen, published 2021)
Positions count from the first letter of the chain named.

T1: Soluble ASGR-1 (recombinant, biotinylated) (human, UniProt P07306 62-291, limits assumed, biotinylated)
T1 construct: also called recombinant, soluble ASGR-1 biotinylated protein
T1 sequence: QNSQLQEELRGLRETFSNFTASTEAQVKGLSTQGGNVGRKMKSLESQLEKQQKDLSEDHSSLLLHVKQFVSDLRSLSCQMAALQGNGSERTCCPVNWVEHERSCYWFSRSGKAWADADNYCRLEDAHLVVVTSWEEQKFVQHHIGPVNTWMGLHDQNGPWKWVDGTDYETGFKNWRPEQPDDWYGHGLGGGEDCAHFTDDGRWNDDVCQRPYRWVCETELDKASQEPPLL

B1: 193E7 (antibody, V domains shown)
VH: QVQLQQWGAGLLKPSETLSLTCAVYGGSFSGYFWTWIRQPPGKGLEWIGEINHSGSTNYNPSLKSRVTISVDTSKNQFSLKLSSVTAADTAVYYCARDYGADYWGQGTLVAVSA
VL: DIQMTQSPSSLSASVGDRVTITCRASQGIRNDLGWYQQKPGKAPKRLIYSASSLQRGVPSRFSGSGSGTEFTLTISSLQPEDFATYYCLQHKRYPLTFGGGTKVEIK
notes: Tested as hybridoma supernatant
B2: 7F4 (antibody, V domains shown)
VH: QLQLQESGPGLVKPSETLSLTCTVSGGSISRSSYYWGWIRQPPGKGLEWIGNIYYSGATYYNPSLKSRVTISVDTSTNQFSLKLSSVTAADTAVYYCARHSGSWSLDYWGQGTLVTVSS
VL: B1 VL with A25T, S50A, S53N, R56S, K92S, R93A
notes: as for B1
B3: 176H4 (antibody, V domains shown)
VH: QVQLVESGGGVVQPGRSLRLSCAASGFTFSSYGMHWVRQAPGKGLEWVAIIWYDGSYKYYADSVKGRFTISRDNSKNTLYLQMSSLRAEDTAVYYCARDAHDFWSGYFAYWGQGALVTVSS
VL: DIVMTQTPLSLSVTPGQPASISCKSSQSLLHGDGKTYLYWYLQKPGQPPQLLIYEVSNRFSGVPDRFSGSGSGTDFTLKISRVEAEDVGIYYCMQSIQIPWTFGQGTRVEIK
notes: as for B1
B4: 194C10 (antibody, V domains shown)
VH: QVQLQQWGAGLLKPSETLSLTCAVSGGSFRYYYWSWIRQPPGKGLEWFGEINHSGSTNYNPSLKSRVTISIDTSKNQFSLKLRSVTAADTAVYYCARDYGAFDIWGQGTMVTVSS
VL: EIVLTQSPGTLSLSPGERATLSCRASPSVNSGYLAWYQQKPGQTPRLLIFGASSRATGIPDRFSASGSGADFTLTISRLEPEDFAVYFCQQYESSPWTFGQGTKVEIK
notes: as for B1
B5: 12D2 (antibody, V domains shown)
VH: EVQLVESGGGLVKPGGSLRLSCAASGFTFSSYSMNWVRQAPGKGLEWVSSISSSSSYIYYADSVKGRFTISRDNAKNSLYLQMNSLRAEDTAVYYCARLGDYWGQGTLVAVSS
VL: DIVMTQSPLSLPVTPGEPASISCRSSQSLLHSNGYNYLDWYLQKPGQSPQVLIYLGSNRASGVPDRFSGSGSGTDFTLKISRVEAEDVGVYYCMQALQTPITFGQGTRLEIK
notes: as for B1
B6: 202A3 (antibody, V domains shown)
VH: QVQLEQSGAEVKKPGASVKVSCKASGYTFTSYDINWVRQATGQGLEWLGWMNPKRGNTGYAQKFQGRVTMTRNTSISTAHMELSSLRSEDTAVYYCARGRYSREDYYYYYDMDVWGQGTTVTVSS
VL: DIQMSQSPSSLSASVGDRVTITCRASQGIRNDLGWYQQKPGKAPKRLICAASRLQSGVPSRFSGSGSGTEFTLTISSLQPEDFAIYYCLQHHDYPFTFGPGTKVDIK
notes: as for B1
B7: 198D2 (antibody, V domains shown)
VH: QVQLVESGGGVVQPGRSLRLSCAASGFTFRSYGMHWVRQAPGKGLEWVAVIIYDGSYKYYADSVKGRFTISRDNSKNTLYLQMNSLRAEDTAVYYCARTYSGGMDVWGQGTTVTVSS
VL: QSVLTQPPSVSAAPGQKVTISCSGSSSNIGSNYVSWYQQLPGTAPKVLIYDNNKRPSGIPDRFSGSKSGTSATLGITGLQTGDEADYYCGTWDSRLNVGVFGGGTKLTVL
notes: as for B1

Molecular target: T1, Soluble ASGR-1 (recombinant, …)
Test: limiting antigen bead FACS; biotinylated soluble ASGR-1 coated at 2.5 ng/mL on LumAvidin beads;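 further: hybridoma supernatants of ligand-competing antibodies bound to antigen-loaded beads, read by flow cytometry on an iQue Screener in calcium-containing buffer, higher fluorescence meaning stronger relative affinity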

| FACS Geomean | Binder |
| --- | --- |
| 18300 | B1 |
| 4910 | B2 |
| 29400 | B3 |
| 21900 | B4 |
| 105 | B5 |
| 2150 | B6 |
| 1870 | B7 |
